Laboratory results: patent US20150087809A1

Molecular target: T1, HLA-A24 type molecule (product of the HLA-A*2402 gene) (human)
Conditions: not given

| Binder | -log Kd |
| --- | --- |
| VFPDLGVRV (modifications not checked) [SEQ ID NO 123] | 6.74 -log Kd (M) |
| AYYSMVGNW (modifications not checked) [SEQ ID NO 102] | 6.47 -log Kd (M) |
| LLKRLHQWI (modifications not checked) [SEQ ID NO 104] | 6.86 -log Kd (M) |
| VLADFKTWL (modifications not checked) [SEQ ID NO 112] | 6.63 -log Kd (M) |
| SYTWTGALI (modifications not checked) [SEQ ID NO 108] | 7.13 -log Kd (M) |
| RYAPACKPL (modifications not checked) [SEQ ID NO 110] | 6.76 -log Kd (M) |
| GLIHLHQNI (modifications not checked) [SEQ ID NO 94] | 5.86 -log Kd (M) |
| PLLRDEVTF (modifications not checked) [SEQ ID NO 87] | 5.09 -log Kd (M) |
| ILMTHFFSI (modifications not checked) [SEQ ID NO 96] | 7.9 -log Kd (M) |
| AFYGVWPLL (modifications not checked) [SEQ ID NO 98] | 7.73 -log Kd (M) |
| VILDSFEPL (modifications not checked) [SEQ ID NO 84] | 5 -log Kd (M) |
| ILLGPADSF (modifications not checked) [SEQ ID NO 100] | 5.5 -log Kd (M) |
| TVLADFKTW (modifications not checked) [SEQ ID NO 90] | 6.52 -log Kd (M) |
| WHYPCTVNF (modifications not checked) [SEQ ID NO 92] | 6.39 -log Kd (M) |
| LLSTTEWQI (modifications not checked) [SEQ ID NO 109] | 8.34 -log Kd (M) |
| WLRDVWDWI (modifications not checked) [SEQ ID NO 106] | 6.34 -log Kd (M) |

Same assay, conditions: remark: other sources report otherwise

| Binder | -log Kd |
| --- | --- |
| ITYSTYGKF (modifications not checked) [SEQ ID NO 107] | 6.37 -log Kd (M) |

Molecular target: T1, HLA-A24 type molecule (product of the …)
Conditions: not given
Remark: another data set of the same source

| Binder | -log Kd |
| --- | --- |
| TVLADFKTW (modifications not checked) [SEQ ID NO 56] | 6.52 -log Kd (M) |
| GLIHLHQNI (modifications not checked) [SEQ ID NO 54] | 5.86 -log Kd (M) |
| LLKRLHQWI (modifications not checked) [SEQ ID NO 65] | 6.86 -log Kd (M) |
| AFYGVWPLL (modifications not checked) [SEQ ID NO 49] | 7.73 -log Kd (M) |
| AQPGYPWPL (modifications not checked) [SEQ ID NO 58] | 5.36 -log Kd (M) |
| ILMTHFFSI (modifications not checked) [SEQ ID NO 60] | 7.9 -log Kd (M) |
| LMCAVHPEL (modifications not checked) [SEQ ID NO 55] | 6.59 -log Kd (M) |
| WHYPCTVNF (modifications not checked) [SEQ ID NO 52] | 6.39 -log Kd (M) |
| AYYSMVGNW (modifications not checked) [SEQ ID NO 67] | 6.47 -log Kd (M) |
| ILLGPADSF (modifications not checked) [SEQ ID NO 75] | 5.5 -log Kd (M) |
| WLRDVWDWI (modifications not checked) [SEQ ID NO 76] | 6.34 -log Kd (M) |
| LMTHFFSIL (modifications not checked) [SEQ ID NO 64] | 5.92 -log Kd (M) |
| VILDSFEPL (modifications not checked) [SEQ ID NO 45] | 5 -log Kd (M) |
| SYTWTGALI (modifications not checked) [SEQ ID NO 61] | 7.13 -log Kd (M) |
| RYAPACKPL (modifications not checked) [SEQ ID NO 71] | 6.76 -log Kd (M) |
| PLLRDEVTF (modifications not checked) [SEQ ID NO 59] | 5.09 -log Kd (M) |

Molecular target: T1, HLA-A24 type molecule (product of the …)
Conditions: not given
Remark: another data set of the same source

| Binder | -log Kd |
| --- | --- |
| SYTWTGALI (modifications not checked) [SEQ ID NO 14] | 7.13 -log Kd (M) |
| AQPGYPWPL (modifications not checked) [SEQ ID NO 12] | 5.36 -log Kd (M) |
| NFSRCWVAL (modifications not checked) [SEQ ID NO 37] | 6.28 -log Kd (M) |
| ILLGPADSF (modifications not checked) [SEQ ID NO 27] | 5.5 -log Kd (M) |
| AYYSMVGNW (modifications not checked) [SEQ ID NO 22] | 6.47 -log Kd (M) |
| LLSTTEWQI (modifications not checked) [SEQ ID NO 42] | 8.34 -log Kd (M) |
| ILPCSFTTL (modifications not checked) [SEQ ID NO 1] | 7.66 -log Kd (M) |
| ITYSTYCKF (modifications not checked) [SEQ ID NO 40] | 6.98 -log Kd (M) |
| LMTHFFSIL (modifications not checked) [SEQ ID NO 18] | 5.92 -log Kd (M) |
| LLKRLHQWI (modifications not checked) [SEQ ID NO 19] | 6.86 -log Kd (M) |
| VILDSFDPI (modifications not checked) [SEQ ID NO 2] | 5.32 -log Kd (M) |
| WHYPCTVNF (modifications not checked) [SEQ ID NO 8] | 6.39 -log Kd (M) |
| ILMTHFFSI (modifications not checked) [SEQ ID NO 13] | 7.9 -log Kd (M) |
